Substrate in data set [1]: N[C@H](Cc1c[nH]c2ccccc12)C(=O)O
Kind of data set: (§1) Activity of human full length CA6 at 10 uM by stopped flow CO2 hydration assay.

Substrate in data set [2]: N[C@@H](Cc1c[nH]c2ccccc12)C(=O)O
Described as §1.

B1: Carbonic anhydrase 6 (Homo sapiens), P23280 (protein)
chain: MRALVLLLSLFLLGGQAQHVSDWTYSEGALDEAHWPQHYPACGGQRQSPINLQRTKVRYNPSLKGLNMTGYETQAGEFPMVNNGHTVQISLPSTMRMTVADGTVYIAQQMHFHWGGASSEISGSEHTVDGIRHVIEIHIVHYNSKYKSYDIAQDAPDGLAVLAAFVEVKNYPENTYYSNFISHLANIKYPGQRTTLTGLDVQDMLPRNLQHYYTYHGSLTTPPCTENVHWFVLADFVKLSRTQVWKLENSLLDHRNKTIHNDYRRTQPLNHRVVESNFPNQEYTLGSEFQFYLHKIEEILDYLRRALN
For B1, the kcat in data set [1] is 4.8 ×10⁵ /s; in data set [2] it was 9.5 ×10⁵ /s.
